# Source: patent US20250011422A1
# Columns and labels:
# [1] = target: human Siglec-6 on the cell surface (U937, MEC1-002, MEC1-hS6, primary CLL cells) (human) (UniProt O43699); experiment: quantitative flow cytometry, primary CLL cells (live, CD20+ CD5+), CLL patient 2691
# [2] = target: human Siglec-6 on the cell surface (U937, MEC1-002, MEC1-hS6, primary CLL cells) (human) (UniProt O43699); experiment: quantitative flow cytometry, primary CLL cells (live, CD20+ CD5+), CLL patient 3071
# [3] = target: human Siglec-6 on the cell surface (U937, MEC1-002, MEC1-hS6, primary CLL cells) (human) (UniProt O43699); experiment: quantitative flow cytometry, primary CLL cells (live, CD20+ CD5+), CLL patient 4705
# [4] = target: human Siglec-6 on the cell surface (U937, MEC1-002, MEC1-hS6, primary CLL cells) (human) (UniProt O43699); experiment: quantitative flow cytometry, primary CLL cells (live, CD20+ CD5+), CLL patient 4973
# [5] = target: human Siglec-6 on the cell surface (U937, MEC1-002, MEC1-hS6, primary CLL cells) (human) (UniProt O43699); experiment: quantitative flow cytometry, primary CLL cells (live, CD20+ CD5+), CLL patient 8242
# [6] = target: human Siglec-6 on the cell surface (U937, MEC1-002, MEC1-hS6, primary CLL cells) (human) (UniProt O43699); experiment: quantitative flow cytometry, primary CLL cells (live, CD20+ CD5+), CLL patient 11944
# [7] = target: human Siglec-6 on the cell surface (U937, MEC1-002, MEC1-hS6, primary CLL cells) (human) (UniProt O43699); experiment: quantitative flow cytometry with bead calibration standard, cell line MEC1-002
# Chain of human Siglec-6 on the cell surface (U937, MEC1-002, MEC1-hS6, primary CLL cells) (human) (O43699 27-453): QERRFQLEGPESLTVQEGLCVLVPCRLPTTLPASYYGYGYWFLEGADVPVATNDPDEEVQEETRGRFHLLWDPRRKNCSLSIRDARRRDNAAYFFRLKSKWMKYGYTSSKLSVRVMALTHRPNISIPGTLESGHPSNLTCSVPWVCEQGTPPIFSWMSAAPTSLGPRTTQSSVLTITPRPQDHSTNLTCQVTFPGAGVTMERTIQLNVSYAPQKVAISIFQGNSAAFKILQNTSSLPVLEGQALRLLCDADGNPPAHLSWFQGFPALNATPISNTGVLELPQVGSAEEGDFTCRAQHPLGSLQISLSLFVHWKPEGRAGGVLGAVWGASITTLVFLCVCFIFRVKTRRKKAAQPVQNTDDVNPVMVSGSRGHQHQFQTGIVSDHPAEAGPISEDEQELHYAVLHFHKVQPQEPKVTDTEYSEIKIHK
substance,measurement,setting,value
commercial mouse anti-human Siglec-6 mAb clone 767329 (R&D Systems) (antibody),Siglec-6 (ABC-isotype),[1],6040 ABC
same,Siglec-6 (ABC-isotype),[2],1540 ABC
same,Siglec-6 (ABC-isotype),[3],2430 ABC
same,Siglec-6 (ABC-isotype),[4],3670 ABC
same,Siglec-6 (ABC-isotype),[5],843 ABC
same,Siglec-6 (ABC-isotype),[6],3580 ABC
same,Siglec-6 (ABC-isotype),[7],1450 ABC
